Data published in patent US12673985B2, “Method for the treatment or prophylaxis of cancer by targeting the extracellular portion of keratin 14 (KRT14) residing on cancer cells” (Hudson Institute of Medical Research, priority 2019, dated 2026).
Entries after “also recorded” stand apart in the source; their conditions may differ.

Columns and labels:
[1] = tested on: SJ-GBM2 primary glioblastoma multiforme; assay: In vitro wound repair assay; format: cell-based; details: mAb 1 μg/ml; 16 hrs
Experimental: In vitro wound repair assays were conducted on the following cancer cell lines: BT16 atypical teratoid rhabdoid (brain) carcinoma, NCI-H1573 lung adenocarcinoma, SJ-GBM2 primary glioblastoma multiforme, AN3CA endometrial carcinoma, SW620 colorectal carcinoma and MDA-MB-468 breast carcinoma. Cells were grown in complete medium to confluency in a 12-well plate, and subsequently serum-starved overnight to synchronize at G0. The following day, cell culture medium was removed and the cell monolayers were wounded by scraping with a pipette tip attached to suction. Non-adherent cells were removed by gentle washes with phosphate buffered saline (PBS) and complete growth medium was added to each well, in either the absence or presence of mAb AN-17 (at 1 μg/ml). The wound area was imaged every hour for 0-24 hours. Wound closure was measured in image series using AnalySIS LS Research Software (Olympus) to determine the area of the wound on each day. Experiments were repeated in triplicate with at least six wound areas observed per growth condition.

[2] = tested on: KRT14+ cells; assay: Flow cytometry for KRT14+ cell populations in ovarian cancer cells; format: cell-based, human and murine; details: mAb AN-17 1:200
Experimental: Flow cytometry was carried out according to standard protocols (PMID: 30602661), with data acquired using a BD LSRFortessa X-20 (BD Biosciences) and analysed using FlowJo software v10.5.0 (BD Biosciences). Samples assessed for KRT14+ cell populations included OVCAR3, CAOV4, ID8 mouse ovarian cancer cells, ascites-derived ovarian cancer cells derived from a clinical specimen (designated #3.1937-07) and cardiac blood from a mice bearing 12-week old epithelial ovarian tumours. For cell lines, 1×10^6 cells per cell line were incubated with either mAb AN-17 (1:200 dilution) or a commercially available anti-KRT14 polyclonal antibody (Sigma SAB4501657; 1:50 dilution) as a positive control for 45 mins in non-immune serum at room temperature. The secondary antibodies, goat anti-mouse Alexa647 (mAb AN-17) or goat anti-rabbit IgG Alexa 488 (commercial Ab), were diluted 1:500 and incubated for 30 minutes. For blood samples, 2×10^6 cells were incubated with an Alexa Fluor®488-conjugated mAb AN-17 antibody for 45 minutes. Following PBS washes, cells were resuspended in PBS/2% FBS data was acquired using a BD LSRFortessa X-20 (BD Biosciences) flow cytometer.

[3] = Tissue distribution and clearance by fluorescence in mice without tumours; format: in vivo
Description: Control mice received vehicle (PBS) alone.

[4] = Assessment of mAb AN-17 toxicity, single intraperitoneal dose; format: in vivo, mice
Experimental: Doses of 0.5, 1.0. 2.5, 5.0 and 10 mg/kg were assessed. After 7 days mice were culled, and examined post mortem for any evidence of toxicity (macroscopic tissue appearance, presence of inflammation, or any obvious lesions).

[5] = tested on: OVCAR4 ovarian cancer cells; assay: Real time cell analysis (RTCA) of proliferation with cisplatin and mAb AN-17; format: cell-based, human
Experimental: Real time cell analysis (RTCA) was conducted as previously described (PMID: 31443478; Bilandzic et al., Cancers (Basel). 2019; 11(9), E1228) using an xCELLigence RTCA SP 96-well instrument (ACEA Biosciences). Cell lines were synchronized in G0 by overnight incubation in serum-free media and were seeded at 0.5×10^3 cells/0.15 ml/per well. […] Impedance readings were taken every 15 minutes for the experimental duration. mAb AN-17 comprises the heavy chain variable region of SEQ ID NO:3 and the light chain variable region of SEQ ID NO:5, encoded by the nucleic acid sequences of SEQ ID NOs:2 and 4, respectively (see also FIGS. 21 and 22A-22B).

B1: mAb AN-17: monoclonal anti-KRT14 antibody; heavy chain variable region SEQ ID NO:3, light chain variable region SEQ ID NO:5 (clone AN-17A RG4.E5b.A7.B4) (antibody, listed as Mus musculus, V domains shown)
VH: QVQLKESGPGLVAPSQSLSITCTVSGFSLSRYSVHWVRQPPGKGLEWLGMIWGGGSTDYNSALKSRLSISKDNSKSQVFLKMNSLQTDDTAMYYCARKDYGYSYFDYWGQGTTLTVSS
VL: DVLMTQTPLSLPVSLGDQASISCRSSQSIVHSNGNTYLEWYLQKPGQSPKLLIYKVSNRFSGVPDRFSGSGSGTDFTLKISRVEAEDLGVYYCFQGSHVPFTFGSGTKLEIKRADAAPTVS
wound closure / migration, SJ-GBM2 [1]: failed to close the wound; also recorded: impaired
detection of KRT14+ cells by flow cytometry compared to Sigma SAB4501657 [2]: comparable sensitivity
non-selective accumulation or retention in healthy tissues ([3]; doses from 0.5 mg/kg to 10 mg/kg i.p.): does not exhibit non-selective accumulation or retention in healthy tissues; also recorded: No non-specific retention
detectability in organs after 7 days ([3]; doses from 0.5 mg/kg to 10 mg/kg i.p., even at the highest dose): virtually undetectable in all organs after 7 days; also recorded: largely undetectable after 7 days
antibody-associated fluorescence in brain ([3]; single dose 0.5 mg/kg i.p.): no fluorescence was detected in brain
tissues with antibody-associated fluorescence ([3]; single dose 0.5 mg/kg i.p.): observed in intestine, reproductive organs, liver, kidney, spleen, lung and heart
specific accumulation / non-specific retention in healthy tissues vs isotype control ([3]; single dose 0.5 mg/kg i.p., 7 day period, 0.5 mg/kg): no specific accumulation; also recorded: no non-specific retention
clearance from organs by day 7 ([3]; single dose 0.5 mg/kg i.p., 0.5 mg/kg): largely cleared from all organs; also recorded: almost undetectable after 7 days
maximum tolerated dose ([4]; doses up to 10 mg/kg i.p.): not reached
evidence of toxic effects ([4]; single i.p. dose 0.5, 1.0, 2.5, 5.0 and 10 mg/kg, up to 7 days and post mortem): No evidence of toxic effects; also recorded: no toxicity noted at any dose or any time point
enhancement of the toxicity of cisplatin ([5]; cisplatin at sub-lethal doses): significantly enhanced the toxicity of cisplatin
increase in sensitivity of cells to standard platinum chemotherapy ([5]; in vitro): at least 10 fold
cell viability or proliferation ([5]; mAb AN-17 alone (1 ug/ml)): had no effect on cell viability or proliferation
